The text below walks through data of publication PMC5797828 (Cancer Science, 2017).

For this experiment, the target named is T1, Human γ-catenin, MYC/DDK-Tag (recombinant) (human, UniProt P14923 1-745).
T1 sequence (looked up): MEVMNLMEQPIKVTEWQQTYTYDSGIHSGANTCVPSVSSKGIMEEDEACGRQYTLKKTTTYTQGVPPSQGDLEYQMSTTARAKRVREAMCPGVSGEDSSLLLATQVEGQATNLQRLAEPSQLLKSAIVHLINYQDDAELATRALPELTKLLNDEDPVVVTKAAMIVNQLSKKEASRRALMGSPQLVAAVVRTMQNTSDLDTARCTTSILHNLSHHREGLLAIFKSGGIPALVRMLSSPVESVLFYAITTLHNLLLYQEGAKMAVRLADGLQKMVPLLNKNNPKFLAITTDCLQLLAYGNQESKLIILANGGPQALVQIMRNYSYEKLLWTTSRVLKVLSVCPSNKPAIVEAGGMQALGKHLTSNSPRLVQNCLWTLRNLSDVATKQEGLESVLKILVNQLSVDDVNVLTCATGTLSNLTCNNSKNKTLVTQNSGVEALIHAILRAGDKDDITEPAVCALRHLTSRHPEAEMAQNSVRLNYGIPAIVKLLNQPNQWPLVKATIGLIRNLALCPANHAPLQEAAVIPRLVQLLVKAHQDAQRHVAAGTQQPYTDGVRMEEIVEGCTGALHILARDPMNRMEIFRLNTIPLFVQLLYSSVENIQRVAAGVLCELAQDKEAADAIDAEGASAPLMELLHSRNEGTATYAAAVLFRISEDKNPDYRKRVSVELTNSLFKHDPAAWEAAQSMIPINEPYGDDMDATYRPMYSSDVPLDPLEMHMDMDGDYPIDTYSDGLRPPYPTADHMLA
Put plainly: SPR. In general terms: SPR reads the build-up and loss of mass on a sensor chip optically.

B1: Human PRDM14, GST-Tag at N-terminus (GST-PRDM14) (natural protein, UniProt Q9GZV8 1-571, looked up)
chain: MALPRPSEAVPQDKVCYPPESSPQNLAAYYTPFPSYGHYRNSLATVEEDFQPFRQLEAAASAAPAMPPFPFRMAPPLLSPGLGLQREPLYDLPWYSKLPPWYPIPHVPREVPPFLSSSHEYAGASSEDLGHQIIGGDNESGPCCGPDTLIPPPPADASLLPEGLRTSQLLPCSPSKQSEDGPKPSNQEGKSPARFQFTEEDLHFVLYGVTPSLEHPASLHHAISGLLVPPDSSGSDSLPQTLDKDSLQLPEGLCLMQTVFGEVPHFGVFCSSFIAKGVRFGPFQGKVVNASEVKTYGDNSVMWEIFEDGHLSHFIDGKGGTGNWMSYVNCARFPKEQNLVAVQCQGHIFYESCKEIHQNQELLVWYGDCYEKFLDIPVSLQVTEPGKQPSGPSEESAEGYRCERCGKVFTYKYYRDKHLKYTPCVDKGDRKFPCSLCKRSFEKRDRLRIHILHVHEKHRPHKCSTCGKCFSQSSSLNKHMRVHSGDRPYQCVYCTKRFTASSILRTHIRQHSGEKPFKCKYCGKSFASHAAHDSHVRRSHKEDDGCSCSICGKIFSDQETFYSHMKFHEDY
Take B1: the binding result is listed as “binds”.
